Results as given in a protein production outcome set (Wang et al. 2014).

Experiment: label from the status in PepcDB records

| Sequence | protein production |
| --- | --- |
| MSDLLPLISVYGYVAALLLISEKTLKNEVVSRKFLHIMVGNIAFILPFFESRFVMAFLAAFPFVVLTFLMSPHSPVKLSSRTSVAGHGLGLVYYSIAWTVLAYAFFDRPDVIAVGIMAMSYGDGLASLIGGRYGKRKFRILGDEKSLEGSVAMFLGCVASFSVVSLYYHGSAGPLLLPLAAFATVVEAVTPKGLDNLSVSILTAILYFWMA | failed |
| AIAREWKSQDAWKQHSLRLCFGVWPGTEFLHRPRAVHRRSGVVCSQMQTEDSHPETPQVPKESLQEEKDSSPATDASFIQSQDGKTVFLDRRTERRIQRGFVLTERGPRSIWKPAGTSSQRNERVPRRAAARGGAGPPDTTPQLATVRVLVLGANHVAQRLAELLSSHSRVCGCYFVSETTDEAAIESMKKYAYALPLRSALNDDEVVRVAEWVLADYVFLVPTGETHDDGVSLKDKERLERTLAQNRVTFMDENLTGLLLENPSLIDALFRARDSLEA | failed |
| MGQALGCIQVDQSNVAIKETFGKFDEVLEPGCHCLPWCLGSQVAGHLSLRVQQLDVRCETKTKDNVFVTVVASIQYRALAESAQDAFYKLSNTRNQIQAYVFDVIRASVPKLDLDSTFEQKNDIAKTVETELEKAMSHYGYEIVQTLIVDIEPDVHVKRAMNEINAASRMREAASEKAEAEKILQIKRAEGEAESKYLSGMGIARQRQAIVDGLRNSVLAFSESVPGTSSKDVMDMVLVTQYFDTLKEIGASSKSNSVFIPHGPGAVRDIASQIRDGLLQGNSAAE | failed |
| MCNETWQSRAEEYIDDSRRLGYALTTTSAYLLSFARFVDQRGHSGALTSDIILDWAQSTDSKKPTTWTKRLINIRRFISHCSRVDGKSEVPRVDVFGRPKGRPTPHIYTELEISELLAAARELPGTLPSATYETLFGLLASTGLRLSEALHLRCSDVDLRSGRLIVRQGKLGKSRLVPLHATVCEVLSRYLGVRQQLPLTSESYFFVSQTGGLLPRRTVEGVFIRLRTKLGWAPRGNWRAPRIHDLRHTFICRRVTQWHKEGADIDNAMLYVSTYVGHVAVTYTYWYLTGIPELMTVVGQRFEAFAESARGAENAE | failed |
| GYRALSFPDPLDSQPVQAIAFYPSTGSEHLSIIHGYRVEASEDAPIAMGRFPLLLLSHGNTGTPLALHDLATSLARQGFVVVAVVHPGDNDRDHSRLGSLSNLYGRPLQISEAISTALLDPVLAPYLNARQ | not failed |
| MNFEGIIIAAISFFIIGIFHPIVIKLEYYLTKNIWPLFLILGIIFIIISLFQKQTVAAAIMGIIGATCIWSIKEIFEQEKRVQKGWFPKNPRKK | failed |
| MKRWTTLLIVICMLGITIPAMGAMSISKMRQNTRFLTDRMAYELKLTPRQYNDVYEVNYDFINNVRYLMDDVVRGYDYALERYYDFLDVRNDDLRWILSSAQYRRFMRAEHFYRPIYAHENKWHFRIYLVYNNVNFFYYGKPHHYASYCGGHYRTHFNNVSYYKTHYRDHYRHDVYDGHYRIRHDRMTYDMHRRRDFNIAVRPPQKEHHRPATPPQTRPNRPQIHPDRPSGDHRRPSVPQARPDRPKKDQNNKHDGRPSRRGQNSQVDKDRHENRRITPSGRDVRRGNGKKEKDSDRSGGSNKSNSKERTAVRMRTV | failed |
| MSRSPEQDSDWMTGVGDSAAGESARVARLVRVAQHIEMHADEALTLSSLAKVAALSPSRLQKQFKAAFGVSPKAYQDAVRMRRFKQSLKDGSKVTDAIFASGFGSVSRVYGEANRSIGMPPRAYRAGGAGEVIVYAGRTTALGLMMMAATERGVCFVEFGDDEASLVGRLRSEFPKAELTASPARNAPELDAWMEALDQHISAGAPRPDLPLDMRGTAFQVKVWQFLLSIREGDVLSYSEVAARIDKPRAVRAVASACGKNRIGVLIPCHRVLRGDGGLGGYRWGLERKRALLEAERRSVTRE | failed |
| MSDPGNEQNGDGIDPAIVEVLLVLREAGIENGATPWSLPKIAKRAQLPMSVLRRVLTQLQAAGLADVSVEADGRGHASLTQEGAALAAQLFPDPF | not failed |
| MAKEKTLDDLFHDTLKDIYYAERKILKALPKMARAAQAPELKAAFEKHKEQTETHVERLQQVFEMIGKRAQGKTCEAIEGIVAEGEEIMDEFKGTAALDAGLISAAQAVEHYEISRYGTLKTWAKTIGLKDAVSLLDATLKEEVVTDEDLTKLAMAQVNKKAA | not failed |
| MKWYTKYLQVYEKPFSEAPQEIVEEVRNKLKLLQSDNPLVTVSLIGYNEEKHLLASLWSLSEMKCKYPIEIIGTDNDSKDQTATIYEATGIPYVIEHQHSCGHARLCGLKRAKGKYHINIDSDTMYPPHYVETMVDALERPGIVAVSSLWSYIPDKEHSWVGLKIYEFIRDIHLWIQSIKRPELSVRGLVFAYRTDYARQVGIRTDIRRGEDGSLALRLKEYGNIYFIRKRKARAITGYGTISADGSLFNSFKVRAIYALKNIGRVFTRKKEYKDEDDNLIKSLEHHHHHH | not failed |
| MIFSQRIYFIILFHVLLILVTAGTGLWLVVSHTGYIIGGILLLCSLFQIGALTRQLNTFNRKIRLFFDAVQDKDNMLYFPEANVGKEQAQLNRSLNRLNDLLARTKGESHKQEHFYQSLLEEVPSGVLAWDDSGRIIIANSAAFSLLKCNRLYTETQLAQLLNATGIRKSLSISEKKMILDGETITILSIKDIGDELSDKENESWSKLTHVLTHEIMNTIAPILSLSQTLSERPDINEKSARGLRIIQAQSERLMEFTESFRHLSYLPHPEKRRFALTEMLRNLEELLQSDFRERGIRFMLQCVPDPIETDGDPNQLSQVFLNLLKNAMQALEGQADGRIILRVRRADRLQVEIEDNGPGIPEEIREQIFIPFFTTKTEGSGIGLSLCKQIIRQHDGHLSIRESRPGQTIFSLDLP | failed |
| MSLTADTKRPLTLRDVSEASGVSEMTVSRVLRNRGDVSDATRARVLAAAKELGYVPNKIAGALASNRVNLVAVIIPSLSNMVFPEVLTGINQVLEDTELQPVVGVTDYLPEKEEKVLYEMLSWRPSGVIIAGLEHSEAARAMLDAAGIPVVEIMDSDGKPVDAMVGISHRRAGREMAQAILKAGYRRIGFMGTKMPLDYRARKRFEGFTEVLGKNGVEIEDREFYSGGSALAKGREMTQAMLERSPDLDFLYYSNDMIAAGGLLYLLEQGIDIPGQIGLAGFNNVELLQGLPRKLATMDACRLEIGRKAAEIIAKRLEDPEAEIETRITLEPKISYGDTLKREGHHHHHH | not failed |
| MTSASAPSFNPGKGPGSAVGIALLGFGTVGTEVMRLMTEYGDELAHRIGGPLEVRGIAVSDISKPREGVAPELLTEDAFALIEREDVDIVVEVIGGIEYPREVVLAALKAGKSVVTANKALVAAHSAELADAAEAANVDLYFEAAVAGAIPVVGPLRRSLAGDQIQSVMGIVNGTTNFILDAMDSTGADYADSLAEATRLGYAEADPTADVEGHDAASKAAILASIAFHTRVTADDVYCEGISNISAADIEAAQQAGHTIKLLAICEKFTNKEGKSAISARVHPTLLPVSHPLASVNKSFNAIFVEAEAAGRLMFYGNGAGGAPTASAVLGDVVGAARNKVHGGRAPGESTYANLPIADFGETTTRYHLDMDVEDRVGVLAELASLFSEQGISLRTIRQEERDDDARLIVVTHSALESDLSRTVELLKAKPVVKAINSVIRLERD | failed |
| MLPPYNYMDNGTLKGISIDLLEAITEKMGKKVTREEIHLVSWTEGYQAALTRNNTVLFVTARTPEREQSFKWVGPIYSDKYVLFAKRDPGVTIDGPEDLKEYRIGVISDDVAAQQLLNIGLEHHHHHH | not failed |
| MERYTKKNERFKAEEGKGSKKSRTFLTERERRALFNDRFFDLKNLIPNPTKGGEASIVQDGIVYINELQRLVSELKYLVEKKKCGARHNNIEVDNKNTIYGTSKIEHPFSKNKNTFNCLIRTLRFVHHF | failed |
| MKFVKIALIIAVIALVLFAAKQTGVLEIITDIKSLQEWIAGFGAWGYIVFVAAFVFACVFLLPGSAFTIVAGIVFGPIKGGVLALFSATLGAVVAFIVARFLLRNTIMKKFGDNPIFKKIDDGVAKNGTSFLILTRLVPVFPFSLQNYAYGLTGLNLSTYALVSLITMAPGAFIFAYMAGDIATNGVSAMLLVKFAVAGLILFGMSLIPKYIAKKKGINMEELAK | not failed |
| MRMPDRTDVCVLLPTLNESETIGDVVGGFYDHGFEHVLVVDGDSTDGTRAIAREHGARVITQSGSGKGQAVREGVEQIDQPYVLMADGDGTYRPEDADKMLTPLFAGRAEHVIGDRFADMEAGAMTRLNAVGNRLINRLFATIHGRDLQDILSGYRAFTTQSFERSKLSADGFGIETELAVECVRRGVSTAVVPIRYEARPGGSETNLHPLKDGGRILLTLYRLARMNNPIFYFGSVAAVGTAGGVALGAFVGYRYLTAGVSHEVLALLAAFLVLLSVQLLMFGVLSDIIVSIHREQTRRLDDIADQLEEQNDE | failed |
| MTVEYTASDLATYQNEVNEQIAKNKAHLESLTHPGSKVTFPIDQDISATPQNPNLKVFFFDIDNCLYKSSTRIHDLMQQSILRFFQTHLKLSPEDAHVLNNSYYKEYGLAIRGLVMFHKVNALEYNRLVDDSLPLQDILKPDIPLRNMLLRLRQSGKIDKLWLFTNAYKNHAIRCLRLLGIADLFDGLTYCDYSRTDTLVCKPHVKAFEKAMKESGLARYENAYFIDDSGKNIETGIKLGMKTCIHLVENEVNEILGQTPEGAIVISDILELPHVVSDLF | not failed |
| MKITVIVPTYRRTKDLTRCLESLEKQSRPADEVLVVVRDTDVETWQFLETIAPHSLPLHTTTVRVPGVVAAMNAGLDIAQGDIIAFTDDDAAPHSNWLAQIETHFLAHEQIAGVGGRDWVYHGDRLEDGTCPVVGQVHWFGRVIGNHHIGIGKPREVDVLKGVNMSFRRSAVHGLRFDQRMLGTGAQVHFEVAFCLALKRAGWKLIYDPQIGVNHYPAQRFDEDQRQSFNHLAVTNAVHNETLALLEHLSPTQQLTFLLWATLVGTRDSMGLIQFLRFLPSDRALAGQKLLAAWYGRWRGWRTWQSSIRFAQIKN | failed |
| MTIQPDFNDEPGAFAMTHTHTALDKTLKERIFHALAFEGLAVLLTAPVLSLVMNKPLAHMGALTLMFSTVAMLWNMLFNSLFDRAQRRMGFQRTLQVRVLHAMLFELGLIVVLVPLAAWWLSIGLVEAFLLDMGLILFFLPYTMAFNWSYDVLRARLVESRQAKAAGCDAG | failed |
| MSYNNSYDVIILAGGLSKRFGADKCCFEVNSKTMLDRLLEQFDNPIVVSRSPRRIKKGILVIEKGEYEGPVKGVREGLKYVRRDRVFITGCDFPFLIKNLVDYVCSKPYDIVIPFDHRPQPLLACYSTELLNKNIDKINGLVELIELSSSVYFIGTEELLKIDPFLYSLININSIIDLIYRPIRIKTKSNFILRLEHHHHHH | failed |
| MNKQNKQNKFSPEVRERSVRLVQEHRGEYPSLWAAVESIAPKIGCVPSTLLEWVKRSEINNGAREGLTSSERDRLKALERENRELRRANEILKTASAFFAQAELDRVLKKLEHHHHHH | not failed |
| MDTIQKRPRTRLSPEKRKEQLLDIAIEVFSQRGIGRGGHADIAEIAQVSVATVFNYFPTREDLVDDVLNKVENEFHQFINNSISLDLDVRSNLNTLLLNIIDSVQTGNKWIKVWFEWSTSTRDEVWPLFLSTHSNTNQVIKTMFEEGIERNEVCNDHTPENLTKMLHGICYSVFIQANRNSSSEEMEETANCFLNMLCIYK | failed |
